{
  "source": "patent US20180320179A1",
  "about": "“LANOSTEROL 14-ALPHA DEMETHYLASE (CYP51) NUCLEIC ACID MOLECULES THAT CONTROL PATHOGENS” (Dow AgroSciences LLC, priority 2017, published 2018)",
  "test_system": "Zymoseptoria tritici (SEPTTR-184)",
  "experiment": "Cyp51 dsRNA tile (fragment) foliar application bioassay (Example 6)",
  "assay_type": "in vivo",
  "details": "for ED50 (ppm) SEPTTR-184 1DP / ED80 (ppm) SEPTTR-184 1DP / Disease Control (%) SEPTTR-184 1DP: 1 day protectant; for ED50 (ppm) SEPTTR-184 1DP / ED80 (ppm) SEPTTR-184 1DP / ED50 (ppm) SEPTTR-184 3DC / ED80 (ppm) SEPTTR-184 3DC: calculated from disease control; for Disease Control (%) SEPTTR-184 1DP / Disease Control (%) SEPTTR-184 3DC: average of 2 trials; for ED50 (ppm) SEPTTR-184 3DC / ED80 (ppm) SEPTTR-184 3DC / Disease Control (%) SEPTTR-184 3DC: 3 days curative",
  "procedure": "The 200 ppm concentration for each treatment was prepared by adding the calculated volume of the corresponding dsRNA solution in TE buffer. […] A non-target dsRNA control (YFP), a TE/phosphate buffer control, disease pressure control, and clean plant control were included.\nThese plants were inoculated with an aqueous spore suspension of Zymoseptoria tritici either prior to or after fungicidal treatments. After inoculation the plants were kept in 100% relative humidity to allow spores to germinate and infect the leaves. The plants were then transferred to a greenhouse set at 20° C. until disease developed.",
  "data": [
    {"molecule": "MgCyp51-T1: dsRNA tile of Zymoseptoria tritici Cyp51, 232 bp, location 166-397 (nucleic acid, listed as Zymoseptoria tritici) GTATTCCACTGGGTGCCCTTCATCGGAAGCACCATCACATACGGCATCGACCCATACAAGTTCTTCTTCTCCTGTCGGGAAAAGTATGGAGATGTCTTTACATTCATCCTGCTGGGAAAGAAGACGACGGTGTGCTTGGGCACCAAGGGCAATGATTTTATTTTGAATGGAAAACTGAAGGACGTCAACGCGGAGGAGATATACAGCCCGCTGACCACTCCTGTCTTTGGCA", "values": [
      {"measurement": "ED50 (ppm) SEPTTR-184 1DP", "result": "<3.125", "unit": "ppm"},
      {"measurement": "ED80 (ppm) SEPTTR-184 1DP", "result": ">200", "unit": "ppm"},
      {"measurement": "Disease Control (%) SEPTTR-184 1DP", "setting": "rate 3.125 ppm", "result": 65, "unit": "%"},
      {"measurement": "Disease Control (%) SEPTTR-184 1DP", "setting": "rate 12.5 ppm", "result": 68, "unit": "%"},
      {"measurement": "Disease Control (%) SEPTTR-184 1DP", "setting": "rate 50 ppm", "result": 70, "unit": "%"},
      {"measurement": "Disease Control (%) SEPTTR-184 1DP", "setting": "rate 200 ppm", "result": 77, "unit": "%"},
      {"measurement": "ED50 (ppm) SEPTTR-184 3DC", "result": "<3.125", "unit": "ppm"},
      {"measurement": "ED80 (ppm) SEPTTR-184 3DC", "result": ">200", "unit": "ppm"},
      {"measurement": "Disease Control (%) SEPTTR-184 3DC", "setting": "rate 3.125 ppm", "result": 71, "unit": "%"},
      {"measurement": "Disease Control (%) SEPTTR-184 3DC", "setting": "rate 12.5 ppm", "result": 78, "unit": "%"},
      {"measurement": "Disease Control (%) SEPTTR-184 3DC", "setting": "rate 50 ppm", "result": 68, "unit": "%"},
      {"measurement": "Disease Control (%) SEPTTR-184 3DC", "setting": "rate 200 ppm", "result": 70, "unit": "%"}
    ]},
    {"molecule": "MgCyp51-T9: dsRNA tile of Zymoseptoria tritici Cyp51, 172 bp, location 1-172 (nucleic acid, listed as Zymoseptoria tritici, double-stranded RNA) ATGGGTCTCCTCCAGGAAGTCCTCGCGCAGTTCGACGCGCAATTCGGCCAGACCAGCCTCTGGAAACTTGTCGGACTTGGATTCCTCGCCTTCAGCACGCTCGCCATCCTCCTCAATGTCCTCTCACAACTTCTCTTCCGTGGCAAGTTGTCCGATCCGCCACTCGTATTCC", "values": [
      {"measurement": "ED50 (ppm) SEPTTR-184 1DP", "result": "<3.125", "unit": "ppm"},
      {"measurement": "ED80 (ppm) SEPTTR-184 1DP", "result": ">200", "unit": "ppm"},
      {"measurement": "Disease Control (%) SEPTTR-184 1DP", "setting": "rate 3.125 ppm", "result": 53, "unit": "%"},
      {"measurement": "Disease Control (%) SEPTTR-184 1DP", "setting": "rate 12.5 ppm", "result": 53, "unit": "%"},
      {"measurement": "Disease Control (%) SEPTTR-184 1DP", "setting": "rate 50 ppm", "result": 57, "unit": "%"},
      {"measurement": "Disease Control (%) SEPTTR-184 1DP", "setting": "rate 200 ppm", "result": 76, "unit": "%"},
      {"measurement": "ED50 (ppm) SEPTTR-184 3DC", "result": "<3.125", "unit": "ppm"},
      {"measurement": "ED80 (ppm) SEPTTR-184 3DC", "result": ">200", "unit": "ppm"},
      {"measurement": "Disease Control (%) SEPTTR-184 3DC", "setting": "rate 3.125 ppm", "result": 52, "unit": "%"},
      {"measurement": "Disease Control (%) SEPTTR-184 3DC", "setting": "rate 12.5 ppm", "result": 46, "unit": "%"},
      {"measurement": "Disease Control (%) SEPTTR-184 3DC", "setting": "rate 50 ppm", "result": 65, "unit": "%"},
      {"measurement": "Disease Control (%) SEPTTR-184 3DC", "setting": "rate 200 ppm", "result": 72, "unit": "%"}
    ]},
    {"molecule": "MgCyp51-T2: dsRNA tile of Zymoseptoria tritici Cyp51, 165 bp, location 48-212 (nucleic acid, listed as Zymoseptoria tritici) CCAGACCAGCCTCTGGAAACTTGTCGGACTTGGATTCCTCGCCTTCAGCACGCTCGCCATCCTCCTCAATGTCCTCTCACAACTTCTCTTCCGTGGCAAGTTGTCCGATCCGCCACTCGTATTCCACTGGGTGCCCTTCATCGGAAGCACCATCACATACGGCAT", "values": [
      {"measurement": "ED50 (ppm) SEPTTR-184 1DP", "result": "<3.125", "unit": "ppm"},
      {"measurement": "ED80 (ppm) SEPTTR-184 1DP", "result": ">200", "unit": "ppm"},
      {"measurement": "Disease Control (%) SEPTTR-184 1DP", "setting": "rate 3.125 ppm", "result": 53, "unit": "%"},
      {"measurement": "Disease Control (%) SEPTTR-184 1DP", "setting": "rate 12.5 ppm", "result": 67, "unit": "%"},
      {"measurement": "Disease Control (%) SEPTTR-184 1DP", "setting": "rate 50 ppm", "result": 70, "unit": "%"},
      {"measurement": "Disease Control (%) SEPTTR-184 1DP", "setting": "rate 200 ppm", "result": 75, "unit": "%"},
      {"measurement": "ED50 (ppm) SEPTTR-184 3DC", "result": "<3.125", "unit": "ppm"},
      {"measurement": "ED80 (ppm) SEPTTR-184 3DC", "result": 125, "unit": "ppm"},
      {"measurement": "Disease Control (%) SEPTTR-184 3DC", "setting": "rate 3.125 ppm", "result": 76, "unit": "%"},
      {"measurement": "Disease Control (%) SEPTTR-184 3DC", "setting": "rate 12.5 ppm", "result": 72, "unit": "%"},
      {"measurement": "Disease Control (%) SEPTTR-184 3DC", "setting": "rate 50 ppm", "result": 76, "unit": "%"},
      {"measurement": "Disease Control (%) SEPTTR-184 3DC", "setting": "rate 200 ppm", "result": 84, "unit": "%"},
      {"measurement": "curative activity against SEPTTR (ranking)", "setting": "curative test", "result": "provided the best curative activity against SEPTTR"},
      {"measurement": "level of control among the fragments (ranking)", "setting": "fragments compared with each other", "result": "provided the best level of control"}
    ]},
    {"molecule": "MgCyp51-T4: dsRNA tile of Zymoseptoria tritici Cyp51, 178 bp, location 647-824 (nucleic acid, listed as Zymoseptoria tritici) AGGGCTTCGACTCGTCTTTCGCGGACCTCTACCACTACCTCGATATGGGATTCACACCGATCAACTTTATGCTTCCGTGGGCGCCCCTTCCCCAGAACCGACGCCGCGATTATGCGCAGAAGAAGATGTCCGAGACATACATGTCGATCATTCAGAAGAGACGAGAGTCCAAAACGGG", "values": [
      {"measurement": "ED50 (ppm) SEPTTR-184 1DP", "result": "<3.125", "unit": "ppm"},
      {"measurement": "ED80 (ppm) SEPTTR-184 1DP", "result": 200, "unit": "ppm"},
      {"measurement": "Disease Control (%) SEPTTR-184 1DP", "setting": "rate 3.125 ppm", "result": 53, "unit": "%"},
      {"measurement": "Disease Control (%) SEPTTR-184 1DP", "setting": "rate 12.5 ppm", "result": 65, "unit": "%"},
      {"measurement": "Disease Control (%) SEPTTR-184 1DP", "setting": "rate 50 ppm", "result": 61, "unit": "%"},
      {"measurement": "Disease Control (%) SEPTTR-184 1DP", "setting": "rate 200 ppm", "result": 80, "unit": "%"},
      {"measurement": "ED50 (ppm) SEPTTR-184 3DC", "result": "<3.125", "unit": "ppm"},
      {"measurement": "ED80 (ppm) SEPTTR-184 3DC", "result": ">200", "unit": "ppm"},
      {"measurement": "Disease Control (%) SEPTTR-184 3DC", "setting": "rate 3.125 ppm", "result": 59, "unit": "%"},
      {"measurement": "Disease Control (%) SEPTTR-184 3DC", "setting": "rate 12.5 ppm", "result": 52, "unit": "%"},
      {"measurement": "Disease Control (%) SEPTTR-184 3DC", "setting": "rate 50 ppm", "result": 67, "unit": "%"},
      {"measurement": "Disease Control (%) SEPTTR-184 3DC", "setting": "rate 200 ppm", "result": 75, "unit": "%"}
    ]},
    {"molecule": "MgCyp51-T11: dsRNA tile of Zymoseptoria tritici Cyp51, 172 bp, location 775-946 (nucleic acid, listed as Zymoseptoria tritici) TCCGAGACATACATGTCGATCATTCAGAAGAGACGAGAGTCCAAAACGGGCGAACATGAGGAAGACATGATCCACAACTTGATGCAGTGCAAATACAAGGACGGCAATGCCATTCCCGACAAGGAGATTGCTCATATGATGATTGCGCTGCTCATGGCCGGCCAGCACTCTT", "values": [
      {"measurement": "ED50 (ppm) SEPTTR-184 1DP", "result": "<3.125", "unit": "ppm"},
      {"measurement": "ED80 (ppm) SEPTTR-184 1DP", "result": ">200", "unit": "ppm"},
      {"measurement": "Disease Control (%) SEPTTR-184 1DP", "setting": "rate 3.125 ppm", "result": 63, "unit": "%"},
      {"measurement": "Disease Control (%) SEPTTR-184 1DP", "setting": "rate 12.5 ppm", "result": 61, "unit": "%"},
      {"measurement": "Disease Control (%) SEPTTR-184 1DP", "setting": "rate 50 ppm", "result": 58, "unit": "%"},
      {"measurement": "Disease Control (%) SEPTTR-184 1DP", "setting": "rate 200 ppm", "result": 61, "unit": "%"},
      {"measurement": "ED50 (ppm) SEPTTR-184 3DC", "result": 12.500, "unit": "ppm"},
      {"measurement": "ED80 (ppm) SEPTTR-184 3DC", "result": ">200", "unit": "ppm"},
      {"measurement": "Disease Control (%) SEPTTR-184 3DC", "setting": "rate 3.125 ppm", "result": 47, "unit": "%"},
      {"measurement": "Disease Control (%) SEPTTR-184 3DC", "setting": "rate 12.5 ppm", "result": 50, "unit": "%"},
      {"measurement": "Disease Control (%) SEPTTR-184 3DC", "setting": "rate 50 ppm", "result": 55, "unit": "%"},
      {"measurement": "Disease Control (%) SEPTTR-184 3DC", "setting": "rate 200 ppm", "result": 42, "unit": "%"}
    ]}
  ]
}
